{"source": "paper PMC10014863", "about": "“Structural analysis of the housecleaning nucleoside triphosphate pyrophosphohydrolase MazG from Mycobacterium tuberculosis” (Frontiers in Microbiology, 2023)", "molecular_target": "the molecule itself", "assay": "SEC", "data": [{"protein": "Mycobacterium tuberculosis MazG (Mtb-MazG), full-length wild type (enzyme, also called WT MazG; full-length MazG) MIVVLVDPRRPTLVPVEAIEFLRGEVQYTEEMPVAVPWSLPAARSAHAGNDAPVLLSSDPNHPAVITRLAAGARLISAPDSQRGERLVDAVAMMDKLRTAGPWESEQTHDSLRRYLLEETYELLDAVRSGSVDQLREELGDLLLQVLFHARIAEDASQSPFTIDDVADTLMRKLGNRAPGVLAGESISLEDQLAQWEAAKASEKARKSVADDVHTGQPALALAQKVIQRAQKAGLPAHLIPDEITSVSVSADVDAENTLRTAVLDFIDRLRCAERAIAVARRGSNVAEQLDVTPLGVITEQEWLAHWPTAVNDSRGGSKKRKGMR", "values": [{"measurement": "stoichiometry N", "value": 2}]}]}
